Numbering of substitutions follows the chain as printed. In names and notes the source's numbering stands.
B1: FIXa-Y155F/R338E/T343R/R403E (protein)
chain 1: YNSGKLEEFVQGNLERECMEEKCSFEEAREVFENTERTTEFWKQYVDGDQCESNPCLNGGSCKDDINSYECWCPFGFEGKNCELDVTCNIKNGRCEQFCKNSADNKVVCSCTEGYRLAENQKSCEPAVPFPCGRVSVSQTSKLTR
chain 2: VVGGEDAKPGQFPWQVVLNGKVDAFCGGSIVNEKWIVTAAHCVETGVKITVVAGEHNIEETEHTEQKRNVIRIIPHHNYNAAINKYNHDIALLELDEPLVLNSYVTPICIADKEYTNIFLKFGSGYVSGWGRVFHKGRSALVLQYLRVPLVDRATCLESTKFRIYNNMFCAGFHEGGRDSCQGDSGGPHVTEVEGTSFLTGIISWGEECAMKGKYGIYTKVSEYVNWIKEKTKLT
B2: FIXa-Y155F/K247N/N249S/R318Y/T343R (protein)
chain 1: B1 chain 1
chain 2: B1 chain 2 with K67N, N69S, R138Y, E158R, E223R
B3: FIXa-D104N/K106S/R318Y/R338E/E410N (mature FIX numbering) (protein)
chain 1: B1 chain 1 with D104N, K106S
chain 2: B1 chain 2 with R138Y, R163T, E223R, E230N
B4: FIXa-Y155F/R318Y/R338E/R403E/E410N (mature FIX numbering) (protein)
chain 1: B1 chain 1
chain 2: B1 chain 2 with R138Y, R163T, E230N
B5: FIXa-A103N/N105S/Y155F/R318Y/R338E/R403E/E410N (mature FIX numbering) (protein)
chain 1: B1 chain 1 with A103N, N105S
chain 2: B1 chain 2 with R138Y, R163T, E230N
B6: FIXa-D104N/K106S/R318Y/R338E/R403E/E410N (mature FIX numbering) (protein)
chain 1: B1 chain 1 with D104N, K106S
chain 2: B1 chain 2 with R138Y, R163T, E230N
B7: FIXa-Y155F/R338E/T343R/R403E/E410S (protein)
chain 1: B1 chain 1
chain 2: B1 chain 2 with E230S
B8: FIXa-K247N/N249S/R318Y/R338E/T343R/R403E (protein)
chain 1: B1 chain 1
chain 2: B1 chain 2 with K67N, N69S, R138Y
B9: FIXa-R318Y/R338E/R403E/E410N (mature FIX numbering) (protein)
chain 1: B1 chain 1
chain 2: B1 chain 2 with R138Y, R163T, E230N
B10: FIXa-D203N/F205T/R318Y/E410N (mature FIX numbering) (protein)
chain 1: B1 chain 1
chain 2: B1 chain 2 with D23N, F25T, R138Y, E158R, R163T, E223R, E230N
B11: FIXa-R338E/T343R/R403E (protein)
chain 1: B1 chain 1
chain 2: B1 chain 2
B12: FIXa-A103N/N105S/R318Y/R338E/R403E/E410N (mature FIX numbering) (protein)
chain 1: B1 chain 1 with A103N, N105S
chain 2: B1 chain 2 with R138Y, R163T, E230N
B13: FIXa-R318Y/R403E/E410N (mature FIX numbering) (protein)
chain 1: B1 chain 1
chain 2: B1 chain 2 with R138Y, E158R, R163T, E230N
B14: FIXa-R318Y/R338E/E410N (mature FIX numbering) (protein)
chain 1: B1 chain 1
chain 2: B1 chain 2 with R138Y, R163T, E223R, E230N
B15: FIXa-Y155F/K247N/N249S/R318Y/R338E (protein)
chain 1: B1 chain 1
chain 2: B1 chain 2 with K67N, N69S, R138Y, R163T, E223R
B16: FIXa-R318Y/R338E/T343R/R403E/E410S (protein)
chain 1: B1 chain 1
chain 2: B1 chain 2 with R138Y, E230S
B17: FIXa-K228N/R318Y/E410N (mature FIX numbering) (protein)
chain 1: B1 chain 1
chain 2: B1 chain 2 with K48N, R138Y, E158R, R163T, E223R, E230N
B18: FIXa-Y155F/K247N/N249S/R318Y/R338E/T343R/R403E (protein)
chain 1: B1 chain 1
chain 2: B1 chain 2 with K67N, N69S, R138Y
B19: FIXa-D104N/K106S/Y155F/R318Y/R338E/R403E/E410N (mature FIX numbering) (protein)
chain 1: B1 chain 1 with D104N, K106S
chain 2: B1 chain 2 with R138Y, R163T, E230N
B20: FIXa-Y155F/R318Y/R338E/E410N (mature FIX numbering) (protein)
chain 1: B1 chain 1
chain 2: B1 chain 2 with R138Y, R163T, E223R, E230N
B21: FIXa-Y155F/N260S/R338E/T343R/R403E (protein)
chain 1: B1 chain 1
chain 2: B1 chain 2 with N80S
B22: FIXa-Y155F/K247N/N249S/T343R/R403E (protein)
chain 1: B1 chain 1
chain 2: B1 chain 2 with K67N, N69S, E158R
B23: FIXa-Y155F/I251S/R338E/T343R/R403E (protein)
chain 1: B1 chain 1
chain 2: B1 chain 2 with I71S
B24: FIXa-K247N/N249S/R338E/T343R/R403E/E410N (protein)
chain 1: B1 chain 1
chain 2: B1 chain 2 with K67N, N69S, E230N
B25: FIXa-Y155F/K247N/N249S/R338E/T343R/R403E/E410N (protein)
chain 1: B1 chain 1
chain 2: B1 chain 2 with K67N, N69S, E230N

Tests used:
[1] = target: Factor X, P00742
Factor X, P00742, sequence (P00742 whole entry, looked up): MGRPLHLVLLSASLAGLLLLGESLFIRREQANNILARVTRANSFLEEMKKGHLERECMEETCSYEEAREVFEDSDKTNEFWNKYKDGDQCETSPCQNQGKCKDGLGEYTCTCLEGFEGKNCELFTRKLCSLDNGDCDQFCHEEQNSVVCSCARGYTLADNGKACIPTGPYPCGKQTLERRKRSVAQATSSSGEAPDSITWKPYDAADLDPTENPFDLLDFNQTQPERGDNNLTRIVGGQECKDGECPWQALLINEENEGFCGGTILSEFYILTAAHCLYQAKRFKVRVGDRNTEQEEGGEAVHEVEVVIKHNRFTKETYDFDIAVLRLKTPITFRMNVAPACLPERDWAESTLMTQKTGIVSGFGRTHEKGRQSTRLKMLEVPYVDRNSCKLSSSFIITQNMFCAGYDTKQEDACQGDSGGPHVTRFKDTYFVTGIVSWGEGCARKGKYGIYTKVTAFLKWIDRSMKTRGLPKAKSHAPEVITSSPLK

[2] = target: Factor X (FX), P00742
Factor X (FX), P00742, sequence (P00742 whole entry, looked up): as above

| Protein | % of WT kcat/KM [1] [%] | kcat [1] [s⁻¹] | kcat/KM [1] [M⁻¹ s⁻¹] | KM [2] [µM] | % of WT kcat/KM [2] [%] | kcat/KM for FX activation (Xase: FVIIIa, PC/PS vesicles, Ca2+) [2] [M⁻¹ s⁻¹] |
| --- | --- | --- | --- | --- | --- | --- |
| B1 | 429 | 5.2 | 2e+08 | 0.0289 |  |  |
| B2 |  | 10.3 |  | 0.0421 | 549 | 2.5e+08 |
| B3 | 581 |  | 2.6e+08 |  |  |  |
| B4 | 418 |  | 1.9e+08 |  |  |  |
| B5 | 283 |  | 1.3e+08 |  |  |  |
| B6 | 377 |  | 1.7e+08 |  |  |  |
| B7 | 629 | 6.8 | 2.9e+08 | 0.0239 |  |  |
| B8 | 886 | 9.2 | 4.1e+08 | 0.0284 |  |  |
| B9 | 262 |  | 1.2e+08 |  |  |  |
| B10 | 88 |  | 3.9e+07 |  |  |  |
| B11 | 663 | 6.9 | 3.1e+08 | 0.0235 |  |  |
| B12 | 327 |  | 1.5e+08 |  |  |  |
| B13 | 59 |  | 2.7e+07 |  |  |  |
| B14 | 770 |  | 3.4e+08 |  |  |  |
| B15 |  | 7.5 |  | 0.0263 | 632 | 2.9e+08 |
| B16 | 962 | 7.6 | 4.4e+08 | 0.019 |  |  |
| B17 | 272 |  | 1.2e+08 |  |  |  |
| B18 | 630 | 10.6 | 2.9e+08 | 0.0365 |  |  |
| B19 | 394 |  | 1.8e+08 |  |  |  |
| B20 | 835 |  | 3.7e+08 |  |  |  |
| B21 | 203 | 6.4 | 9.4e+07 | 0.0692 |  |  |
| B22 | 184 | 4.7 | 8.5e+07 | 0.0596 |  |  |
| B23 | 651 | 5.9 | 3e+08 | 0.0196 |  |  |
| B24 |  | 10.8 |  | 0.0251 | 930 | 4.3e+08 |
| B25 | 805 | 9.8 | 3.7e+08 | 0.0264 |  |  |
